These results are taken from publication PMC9649962, “Early diagnosis of bladder cancer by photoacoustic imaging of tumor-targeted gold nanorods” (Photoacoustics, 2022).

The test system of assay [1] is MB49-Luc orthotopic bladder tumor. Nature of the assay: In vivo PAI of orthotopic MB49-Luc bladder tumor. Details: species or system mouse. The settings on record: co-administration of excess free peptide (296 µg) with GNRs@Chit-Iso4 (1.5 nmol Au); two mice per condition. Here is the method: All procedures and studies involving mice were approved by the Institutional Animal Care and Use Committee of San Raffaele Scientific Institute and performed according to the prescribed guidelines (IACUC, approval number 942). Female albino C57BL/6 J mice (9 weeks old, weighing about 20 g, Charles River Laboratories, Italy) were anesthetized with ketamine (80 mg/kg) and xylazine (15 mg/kg) and kept in dorsal position. Using a 24-gauge catheter, the bladder of each mouse was emptied and instilled with or without MB49-Luc cells (10^5 cells/100 μl in DPBS). Thirty minutes later the catheter was removed, and mice were allowed to recover and returned to their cage. Tumor growth was monitored by measuring the tumor volume through US imaging (see below) and in vivo bioluminescent quantification after administration of luciferin (15 mg/kg, intra peritoneum) using the non-invasive In Vivo Imaging System (IVIS, PerkinElmer, USA). […]

The subject of another assay is 5637 cells. Nature of the assay: Cell adhesion to GNR-coated plates, 5637. The settings on record: excess of free Iso4, plates coated with 250 µg/ml GNRs@Chit-Iso4. The format is cell-based, human. The procedure: (§1) The plates were washed and blocked with 2% BSA in DMEM or RPMI-1640 (200 μl/well, 1 h). MB49-Luc and 5637 cells were detached with DPBS-E, washed twice with DPBS, and suspended in DMEM or RPMI-1640 containing 0.1% BSA (binding buffer-3), and added to the coated-plates (1.5 ×10^5 cells/well, 100 μl). After 1–2 h of incubation at 37 °C, 5% CO2, the plates were washed with binding buffer-3. Adherent cells were fixed and stained with 0.5% crystal violet in 20% methanol. After washing with water, the dye was extracted from cells using a 10% acetic acid solution (140 μl/well) and the absorbance at 570 nm was measured using a microplate reader.

For a further assay, the system named is MB49-Luc cells. The experiment in a line: Cell adhesion to GNR-coated plates, MB49-Luc. Type of assay: cell-based, murine. The note with it: excess of free Iso4, plates coated with 250 µg/ml GNRs@Chit-Iso4. The procedure:
as §1

The target of assay [2] is Wild-type human integrin α5β1 (octyl β-D-glucopyranoside preparation) (human) (UniProt P08648). The experiment in a line: ELISA; α5β1 (4 μg/ml) coated on PVC microtiter plates; Iso4-HRP or ARA-HRP 0–400 nM in 25 mM Tris-HCl pH 7.4, 150 mM sodium chloride, 1 mM magnesium chloride, 1 mM manganese chloride, 1% BSA, 2 h; no detergent; bound peroxidase by OPD, absorbance at 490 nm; effect of urine: Iso4-HRP 300 nM mixed with human urine (11.5–90%). For orientation: ELISA stands for enzyme-linked immunosorbent assay.

Assay [3] concerns the target α5β1 integrin on murine bladder cancer MB49-Luc cells (mouse (endogenous in MB49-Luc)) (UniProt P11688).
The target of assay [4] is α5β1 integrin on human bladder cancer 5637 cells (human (endogenous in 5637)) (UniProt P08648).
The target in assay [5] is α5β1 integrin on murine bladder cancer MB49-Luc cells (mouse (endogenous in MB49-Luc)) (UniProt P11688). The source holds these as a separate data set.

UniProt P11688, sequence (P11688 45-1053, chain 1 of 2): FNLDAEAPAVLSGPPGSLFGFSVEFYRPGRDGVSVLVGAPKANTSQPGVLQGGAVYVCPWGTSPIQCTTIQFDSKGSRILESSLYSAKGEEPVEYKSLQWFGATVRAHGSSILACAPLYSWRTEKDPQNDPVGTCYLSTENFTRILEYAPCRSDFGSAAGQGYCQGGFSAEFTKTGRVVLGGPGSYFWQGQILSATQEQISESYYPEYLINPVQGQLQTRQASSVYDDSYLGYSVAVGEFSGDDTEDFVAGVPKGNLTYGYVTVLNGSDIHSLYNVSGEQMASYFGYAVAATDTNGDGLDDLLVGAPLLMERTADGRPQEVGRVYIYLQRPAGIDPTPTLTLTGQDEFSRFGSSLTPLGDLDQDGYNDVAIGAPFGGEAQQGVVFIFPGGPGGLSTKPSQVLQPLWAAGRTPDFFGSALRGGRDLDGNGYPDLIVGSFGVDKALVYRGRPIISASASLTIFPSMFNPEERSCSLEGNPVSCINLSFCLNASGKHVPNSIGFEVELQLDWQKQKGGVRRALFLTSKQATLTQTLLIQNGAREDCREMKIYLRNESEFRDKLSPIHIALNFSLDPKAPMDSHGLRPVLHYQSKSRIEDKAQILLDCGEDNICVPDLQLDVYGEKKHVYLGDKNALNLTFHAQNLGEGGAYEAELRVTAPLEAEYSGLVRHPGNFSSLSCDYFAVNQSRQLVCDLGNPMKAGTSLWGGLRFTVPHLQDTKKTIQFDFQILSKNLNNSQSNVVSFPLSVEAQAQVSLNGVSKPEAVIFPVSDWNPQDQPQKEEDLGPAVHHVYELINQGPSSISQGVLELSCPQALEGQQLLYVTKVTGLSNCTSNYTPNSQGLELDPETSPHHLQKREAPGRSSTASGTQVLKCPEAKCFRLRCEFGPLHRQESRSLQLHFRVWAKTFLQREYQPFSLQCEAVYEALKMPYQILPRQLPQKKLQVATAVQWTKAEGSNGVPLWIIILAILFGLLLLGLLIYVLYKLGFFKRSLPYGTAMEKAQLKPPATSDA
UniProt P11688, sequence (P09055 21-798, chain 2 of 2, further chain): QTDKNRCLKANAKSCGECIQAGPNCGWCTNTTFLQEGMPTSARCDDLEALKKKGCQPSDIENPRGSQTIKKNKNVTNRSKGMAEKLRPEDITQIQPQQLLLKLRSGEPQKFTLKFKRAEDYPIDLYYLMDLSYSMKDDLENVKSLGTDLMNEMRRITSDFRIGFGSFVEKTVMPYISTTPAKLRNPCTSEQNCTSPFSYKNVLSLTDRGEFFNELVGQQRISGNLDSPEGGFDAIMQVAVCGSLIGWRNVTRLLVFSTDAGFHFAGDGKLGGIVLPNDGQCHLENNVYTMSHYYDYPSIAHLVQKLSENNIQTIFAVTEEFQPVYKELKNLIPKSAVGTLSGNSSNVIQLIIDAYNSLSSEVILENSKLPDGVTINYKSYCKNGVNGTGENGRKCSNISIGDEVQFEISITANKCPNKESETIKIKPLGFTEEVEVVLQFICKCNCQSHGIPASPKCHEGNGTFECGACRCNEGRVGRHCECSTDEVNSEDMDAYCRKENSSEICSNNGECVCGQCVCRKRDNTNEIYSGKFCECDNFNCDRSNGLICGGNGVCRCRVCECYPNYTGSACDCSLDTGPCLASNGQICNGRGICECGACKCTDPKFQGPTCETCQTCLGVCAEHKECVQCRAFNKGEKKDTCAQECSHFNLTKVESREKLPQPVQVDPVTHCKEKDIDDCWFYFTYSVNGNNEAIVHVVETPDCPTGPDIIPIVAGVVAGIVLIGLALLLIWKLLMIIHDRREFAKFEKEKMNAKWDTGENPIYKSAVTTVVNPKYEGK
UniProt P08648, sequence (P08648 42-1049, chain 1 of 2): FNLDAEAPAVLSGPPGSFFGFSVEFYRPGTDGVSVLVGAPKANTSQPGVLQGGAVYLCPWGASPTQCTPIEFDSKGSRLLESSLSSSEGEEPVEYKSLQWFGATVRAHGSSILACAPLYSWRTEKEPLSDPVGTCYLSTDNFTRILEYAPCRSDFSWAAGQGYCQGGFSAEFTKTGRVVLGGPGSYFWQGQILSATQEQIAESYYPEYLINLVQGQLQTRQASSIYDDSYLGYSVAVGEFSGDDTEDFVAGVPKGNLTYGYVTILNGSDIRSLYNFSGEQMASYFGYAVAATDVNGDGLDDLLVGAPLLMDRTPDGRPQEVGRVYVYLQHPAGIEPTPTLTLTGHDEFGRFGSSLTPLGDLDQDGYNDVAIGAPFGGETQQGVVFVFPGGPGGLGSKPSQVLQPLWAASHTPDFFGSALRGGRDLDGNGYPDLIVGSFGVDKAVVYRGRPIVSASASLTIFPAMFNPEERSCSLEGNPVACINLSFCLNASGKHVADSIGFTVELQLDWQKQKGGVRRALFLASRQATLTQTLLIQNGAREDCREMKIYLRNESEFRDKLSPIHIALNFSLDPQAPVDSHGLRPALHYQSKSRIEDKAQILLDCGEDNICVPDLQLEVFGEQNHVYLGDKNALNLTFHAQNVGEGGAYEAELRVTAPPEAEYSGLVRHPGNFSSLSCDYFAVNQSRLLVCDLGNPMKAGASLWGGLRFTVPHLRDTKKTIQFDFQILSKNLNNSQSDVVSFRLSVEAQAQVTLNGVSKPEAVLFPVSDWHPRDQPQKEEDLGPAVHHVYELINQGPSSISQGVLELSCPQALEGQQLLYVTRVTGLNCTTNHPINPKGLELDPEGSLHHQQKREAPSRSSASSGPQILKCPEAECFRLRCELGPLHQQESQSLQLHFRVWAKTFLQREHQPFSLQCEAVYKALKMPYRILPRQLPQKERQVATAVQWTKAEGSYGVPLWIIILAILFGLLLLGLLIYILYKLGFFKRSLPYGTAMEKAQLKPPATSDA
UniProt P08648, sequence (P05556 21-798, chain 2 of 2, further chain): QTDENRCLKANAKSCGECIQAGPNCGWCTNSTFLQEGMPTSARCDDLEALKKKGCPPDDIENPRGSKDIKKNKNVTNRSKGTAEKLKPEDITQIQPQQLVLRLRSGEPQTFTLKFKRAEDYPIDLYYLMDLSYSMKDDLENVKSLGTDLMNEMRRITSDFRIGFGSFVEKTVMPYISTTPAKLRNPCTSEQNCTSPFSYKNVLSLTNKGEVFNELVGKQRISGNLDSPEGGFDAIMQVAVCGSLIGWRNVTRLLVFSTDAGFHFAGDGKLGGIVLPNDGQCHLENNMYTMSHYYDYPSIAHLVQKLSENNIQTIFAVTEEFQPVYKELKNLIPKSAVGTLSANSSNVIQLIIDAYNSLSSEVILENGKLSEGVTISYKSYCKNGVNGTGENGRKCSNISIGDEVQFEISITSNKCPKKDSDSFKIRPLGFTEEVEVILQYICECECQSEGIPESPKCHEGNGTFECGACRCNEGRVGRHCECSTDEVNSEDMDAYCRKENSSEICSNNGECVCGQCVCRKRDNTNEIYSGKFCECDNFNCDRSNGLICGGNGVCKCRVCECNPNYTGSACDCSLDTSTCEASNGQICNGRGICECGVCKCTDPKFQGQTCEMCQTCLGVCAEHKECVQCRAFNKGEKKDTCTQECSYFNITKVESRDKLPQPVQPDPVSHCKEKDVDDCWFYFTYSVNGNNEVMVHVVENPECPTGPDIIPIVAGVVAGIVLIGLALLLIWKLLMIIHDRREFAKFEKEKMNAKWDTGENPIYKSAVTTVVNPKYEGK

Take c(CphgisoDGRG) (head to tail) [Iso4]: the “effect of free peptide on tumor binding of GNR@Chit-Iso4” value in assay [1] is “reduced by co-administration of an excess of free Iso4 peptide”. The “inhibition of cell adhesion by free peptide” value with 5637 cells and with MB49-Luc cells was “completely inhibited cell adhesion” in each case.
Substance “Iso4-HRP (head-to-tail cyclized peptide c(CphgisoDGRG), Iso4, conjugated to maleimide-activated horseradish peroxidase)” returned a recovery of binding in 90% human urine in assay [2] of 55%.
With “GNRs@Chit-Iso4 (chitosan-coated gold nanorods functionalized with Iso4 through a maleimide-PEG12-NHS linker) (peptide)”, in assay [3], the increase of MB49-Luc cell adhesion to GNRs@Chit-Iso4-coated plates in DMEM containing 25–75% human urine stood at 20%. Further, the EC50 of adhesion of 5637 cells to plates coated with GNRs@Chit-Iso4 in assay [4] came to 1.3 µg/mL. The substance further returned an EC50 of adhesion of MB49-Luc cells to plates coated with GNRs@Chit-Iso4 in assay [5] of 0.73 µg/mL.
